Test results from patent US20230139700A1 (BIO THERA SOLUTIONS, published 2023).
Values belong to the binder of their own block, whether it stands above or below them.

Assays:
human OX40 on cells [1] = target: T1, human OX40 on cells (human, UniProt P43489 29-277); assay: flow cytometry on Jurkat-hOX40 cells, 3-fold dilutions from 50 nM, MFI
T1 construct: whole, on cells; the cell is named under assay; also called hOX40; Jurkat-hOX40 cells
T1 sequence (looked up): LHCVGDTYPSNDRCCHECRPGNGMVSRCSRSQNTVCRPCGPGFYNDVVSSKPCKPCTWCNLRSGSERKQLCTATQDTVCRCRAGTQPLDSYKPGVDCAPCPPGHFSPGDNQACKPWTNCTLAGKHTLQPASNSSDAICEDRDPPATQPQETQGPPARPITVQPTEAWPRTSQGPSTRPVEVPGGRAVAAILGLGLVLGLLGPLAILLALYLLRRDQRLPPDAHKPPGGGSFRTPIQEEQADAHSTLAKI
Protocol: Antibody-F23-4k and antibody-F23-32k, as well as two control antibodies 11D4 and OX40mAb24 at different concentrations were used to incubate Jurkat-hOX40 cells.

mouse OX40-his = target: T2, mouse OX40-his (mouse, UniProt P47741 20-211); assay: ELISA, 10 ng antigen coated, HRP secondary antibody
T2 construct: also called mOX40-his; not shown: his tag
T2 sequence (looked up): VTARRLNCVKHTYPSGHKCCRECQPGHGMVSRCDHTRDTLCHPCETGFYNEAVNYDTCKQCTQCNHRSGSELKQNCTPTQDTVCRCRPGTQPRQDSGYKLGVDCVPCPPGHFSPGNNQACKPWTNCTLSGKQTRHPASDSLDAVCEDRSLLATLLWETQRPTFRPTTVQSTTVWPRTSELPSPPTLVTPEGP

hCD27-FC = target: T3, hCD27-FC (human, UniProt P26842 20-191, limits assumed); assay: as above
T3 construct: not shown: Fc part
T3 sequence (looked up): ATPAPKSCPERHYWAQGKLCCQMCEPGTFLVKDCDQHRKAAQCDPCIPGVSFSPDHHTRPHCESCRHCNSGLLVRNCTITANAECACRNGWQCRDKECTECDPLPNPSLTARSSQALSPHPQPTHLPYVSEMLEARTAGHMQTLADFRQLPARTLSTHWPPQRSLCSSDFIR

rhesus monkey OX40-his = target: T4, rhesus monkey OX40-his (rhesus monkey); assay: BLI (Fortebio), protein A sensor - antibody - OX40-his (100 nM)
T4 construct: also called Rh-OX40; Rh-OX40-his

human OX40 on cells [2] = target: T1, human OX40 on cells; assay: flow cytometry (MFI) on Jurkat cells overexpressing OX40, antibody titration
Text: (§1) Table 10 illustrates the CDRs of eight full antibodies containing these amino acid mutations, and the rest of the sequences are the same as those of antibody-F23-32K. […] The sequences of the anti-OX40 antibody (antibody M) are shown in Table 12; wherein, the expression cells used for the antibodies above (including antibody M) are CHO-S cells, and the method for preparing the antibody M-KF is as follows: the antibody M was identical to the antibody M-KF in terms of amino acid sequence and was expressed by the CHO cell line in which the fut8 gene was knocked out (the content of fucose in antibody M-KF was about 0%).

hOX40-his = target: T5, hOX40-his (human, UniProt P43489 29-216); assay: BIACORE, antibody on the probe, 20 nM OX40-his
T5 construct: range 1-216; Made in HEK293; The stated range starts at residue 1 (holds the signal peptide of the entry); no cleavage site stated; not shown: his tag
T5 sequence (looked up): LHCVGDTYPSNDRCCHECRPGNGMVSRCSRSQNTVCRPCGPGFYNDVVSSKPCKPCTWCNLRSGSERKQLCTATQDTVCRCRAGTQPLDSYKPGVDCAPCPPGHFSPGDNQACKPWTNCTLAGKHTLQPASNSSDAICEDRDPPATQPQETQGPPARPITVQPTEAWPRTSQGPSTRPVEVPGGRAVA
Text: as §1

human OX40 on cells [3] = target: T1, human OX40 on cells; assay: flow cytometry (MFI) on Jurkat cells overexpressing OX40, antibody titration; the unit nM comes from the legend paragraph 95
Text: as §1

human OX40 on cells [4] = target: T1, human OX40 on cells; assay: flow cytometry on Jurkat-hOX40 cells, 100 nM antibody, secondary antibody; parental Jurkat as control
Protocol: Jurkat cells overexpressing human OX40 (Jurkat-hOX40 cells) were generated by transfecting pCMV vectors with human OX40 cDNA. Jurkat-hOX40 cells (0.5×10⁶ cells) were incubated with 100 nM experimental antibody in PBS containing 0.1% BSA on ice for 40 min. The cells were then washed twice and incubated with the secondary antibody in PBS containing 0.1% BSA on ice for 25 min. The cells were washed twice and analyzed by flow cytometry on Accuri C6 system (BD Biosciences).

human OX40 on cells [5] = target: T1, human OX40 on cells; assay: cell-based or functional assay
[6] = target: T6, human OX40 (coated on the plate, Example 8) (human, UniProt P43489 29-214); assay: ELISA, OX40 coated at 2 µg/mL, antibody 2-fold dilutions; human OX40, not cynomolgus monkey OX40
T6 sequence (looked up): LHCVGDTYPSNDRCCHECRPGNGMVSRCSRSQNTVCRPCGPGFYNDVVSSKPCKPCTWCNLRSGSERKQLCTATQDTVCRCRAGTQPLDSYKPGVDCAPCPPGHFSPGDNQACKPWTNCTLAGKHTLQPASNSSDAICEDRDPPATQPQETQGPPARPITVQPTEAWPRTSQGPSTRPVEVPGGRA
Protocol: (§2) The binding capacities of the antibody M-KF for human and cynomolgus monkey OX40 were determined by ELISA. The test method is as follows: human or cynomolgus monkey OX40 was coated on a plate and incubated overnight at 4° C. at a concentration of 2 μg/mL, and then incubated with antibody M-KF at different concentrations for detection. The antibody M-KF was 2-fold diluted in gradient from an initial concentration of 1 μg/mL or 2 μg/mL.

cynomolgus monkey OX40 = target: T7, cynomolgus monkey OX40 (cynomolgus monkey); assay: ELISA, OX40 coated at 2 µg/mL, antibody 2-fold dilutions
T7 chain: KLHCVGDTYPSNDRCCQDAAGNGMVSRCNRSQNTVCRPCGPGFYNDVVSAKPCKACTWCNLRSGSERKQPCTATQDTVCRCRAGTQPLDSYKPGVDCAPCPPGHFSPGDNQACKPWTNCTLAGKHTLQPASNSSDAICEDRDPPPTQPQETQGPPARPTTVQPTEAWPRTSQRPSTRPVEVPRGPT
Protocol: as §2

hOX40-FC = target: T8, hOX40-FC (human, UniProt P43489 29-216); assay: BLI (ForteBio), biotinylated antibody on SA sensor, OX40-Fc 50 nM bivalent, 1:1 model
T8 construct: range 1-216; Made in HEK293; The stated range 1-216 starts at residue 1, so it holds the signal peptide of the entry; also called human OX40 extracellular region fused to human IgG1-Fc; not shown: human IgG1-Fc, UniProt P01857, residues 104 to 330
T8 sequence (looked up): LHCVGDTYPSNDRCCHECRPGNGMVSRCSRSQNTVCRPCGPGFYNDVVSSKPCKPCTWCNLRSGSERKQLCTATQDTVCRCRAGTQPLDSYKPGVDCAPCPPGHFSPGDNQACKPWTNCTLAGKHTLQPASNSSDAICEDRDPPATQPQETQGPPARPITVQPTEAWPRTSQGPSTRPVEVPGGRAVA
Protocol: The ForteBio affinity assay was conducted according to the existing conventional method (Estep, P et al., MAbs, 2013, 5(2): 270-8). The brief process is as follows: the sensor was equilibrated offline in an assay buffer (such as PBS) for 20 min and then subjected to online test for 60 s to establish a signal baseline. The purified antibodies obtained as described above were each loaded online onto a corresponding sensor (ForteBio), and finally the ForteBio affinity assay was conducted. The biotinylated candidate antibodies were adsorbed with the SA sensor, and binding and dissociation of hOX40-FC were each detected for about 5 min. The results are shown in Table 4, and N.D indicates not detected in Table 4. Finally, kinetic analysis was performed for all by using a 1:1 binding model.

B2: 11D4 (antibody, V domains shown)
VH: EVQLVESGGGLVQPGGSLRLSCAASGFTFSSYSMNWVRQAPGKGLEWVSYISSSSSTIDYADSVKGRFTISRDNAKNSLYLQMNSLRDEDTAVYYCARESGWYLFDYWGQGTLVTVSS
VL: DIQMTQSPSSLSASVGDRVTITCRASQGISSWLAWYQQKPEKAPKSLIYAASSLQSGVPSRFSGSGSGTDFTLTISSLQPEDFATYYCQQYNSYPPTFGGGTKVEIKR
EC50 (human OX40 on cells [1]): 1.5 nM
EC50 (read off the curve) (human OX40 on cells [2]): ~1 nM
Kd (hOX40-his): 1.31 nM
koff (hOX40-his): 0.000461 s⁻¹
kon (hOX40-his): 353000 M⁻¹ s⁻¹
EC50 (human OX40 on cells [3]): 1.17 nM

B4: Antibody M-KF (antibody, human IgG1, kappa, V domains shown)
VH: QVQLVESGGGVVQPGESLRLSCAASGFTFSSYGMHWVRQAPGKGLEWVAVIWEDGSNQYYADSVKGRFTISRDNSKNTLYLQMNSLRAEDTAVYYCAKDNQDTSPDVGIDYWGQGTLVTVSS
VL: DIQMTQSPSSLSASVGDRVTITCRASQNISPFLNWYQQKPGKAPKLLIYAAVGLQSGVPSRFSGSGSGTDFTLTISSLQPEDFATYYCQQYTDYPLTFGGGTKVEIKR
modifications: fucose content about 0% (expressed in a CHO cell line with the fut8 gene knocked out)
EC50 (read off the curve) (human OX40 on cells [2]): ~1 nM
ADCC killing, fold against antibody M (human OX40 on cells [5]): > 2 fold
EC50 of ADCC killing, PBMC effector cells against Jurkat-hOX40 target cells (25:1) (human OX40 on cells [5]): ~1.89 ng/mL
NFκB reporter in Jurkat-hOX40-NFκB-2 cells with Raji cells, activation peak against 11D4 (human OX40 on cells [5]): ~2.5 fold
EC50 [6]: ~0.034 ng/mL
EC50 (cynomolgus monkey OX40): ~0.0352 ng/mL
EC50 (human OX40 on cells [3]): 1.34 nM

B5: Antibody-F23-4k (antibody, human IgG1, kappa, V domains shown)
VH: QVQLEESGGGVVQPGESLRLSCAASGFTFSSYGMHWVRQAPGKGLEWVAVISYDGSNQYYADSVKGRFTISRDNSKNTLYLQMNSLRAEDTAVYYCAKDNQDSSPDVGIDYWGQGTLVTVSS
VL: DIVMTQSPSSLSASVGDRVTITCRASQDILGYVNWYQQKPGKAPILLIYATSGLQGGVPSRFSGSGSGTDFTLTISSLQPEDFATYYCQQYNSYPLTFGGGTKVDIKR
notes: also called antibody No. 4
EC50 (human OX40 on cells [1]): 1.5 nM
Kd (hOX40-FC): 0.6 nM

Second part, the binder after the results:

EC50 (human OX40 on cells [1]): 5 nM
ELISA (OD value) (mouse OX40-his): 0.17 OD
ELISA (OD value) (hCD27-FC): 0.2 OD
Kd (rhesus monkey OX40-his): 3 nM
B1: OX40mAb24 (antibody, V domains shown)
VH: QVQLQESGPGLVKPSQTLSLTCAVYGGSFSSGYWNWIRKHPGKGLEYIGYISYNGITYHNPSLKSRITINRDTSKNQYSLQLNSVTPEDTAVYYCARYKYDYDGGHAMDYWGQGTLVTVSS
VL: DIQMTQSPSSLSASVGDRVTITCRASQDISNYLNWYQQKPGKAPKLLIYYTSKLHSGVPSRFSGSGSGTDYTLTISSLQPEDFATYYCQQGSALPWTFGQGTKVEIKR

binding result (human OX40 on cells [4]): binds
B3: Antibody-F10 (antibody, human IgG1, kappa, V domains shown)
VH: QVQLQESGGGLEKPGRSLRLSCAASGFTFSSYAMHWVRQAPGKGLEWVAVISYDGSNKYYADSVKGRFTISRDNSKNTLYLQMNSLRAEDTAVYYCARELGVYSGYDTPFDYWGQGTLVTVSS
VL: DIQMTQSPSSLSASVGDRITITCRASRDIRDDLAWYQQKPGGAPKLLIYAASTLQSGVPSRFSGSGSGTDFTLTISSLQPEDFATYYCLQDSDYPLTFGGGTKLEIKR
notes: also called antibody No. 1
